{
  "source": "the domain aggregation screens of Martell et al. (2025)",
  "test": "soluble fraction after stress (log2 fold change); higher = more stays soluble; pooled small domains, quantitative proteomics",
  "conditions": "stress: pH 4",
  "summary_of_the_method": "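Values are log2 fold changes, and higher ones mean more of the domain stayed soluble. Each fold change reflects the soluble amount of a domain after acid stress and is taken as a measure of aggregation propensity. The stress was pH 4, applied to pooled custom libraries of small protein domains analysed by high-throughput quantitative proteomics.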",
  "data": [
    {"sequence": "HMWTIDPLDWKTENADQIVEKVMSEAKENAIILLHDRYEASVEAALRIVDLLKEQGYTFVTADKLV", "values": [
      {"measurement": "soluble fraction (log2)", "result": -0.421}
    ]},
    {"sequence": "HMKLSKKVTDFLAQMPSKSISPKMLANNLGLADDAGDYKHLLKTIAQLEESKAIEVTAAGNIALPQPE", "values": [
      {"measurement": "soluble fraction (log2)", "result": 0.0669}
    ]},
    {"sequence": "HMNKNNLRNVSSKIRKSRRVLNLSQAELSKKLDISPSYLNLIESGKRPITVPLLIKLGNILGISLKDL", "values": [
      {"measurement": "soluble fraction (log2)", "result": 0.201}
    ]},
    {"sequence": "HMNPTTQIQYNLPKSEFVSIYIYDLIGNRVKSLINNYQDAGYKSVYWDAMNDLGQPVSAGMYIY", "values": [
      {"measurement": "soluble fraction (log2)", "result": -0.0442}
    ]},
    {"sequence": "HMQVSDEGPIKAILQEVLDKSPTQLADYASGKVKLRQYFFGEAMKALKGKANPQVINKLLDEMLPPVAA", "values": [
      {"measurement": "soluble fraction (log2)", "result": -0.178}
    ]},
    {"sequence": "HMDLLVWRVADEDAGERIDKLVVDSLDDVSRTAVQQWIKDGLVTVNGKTVKPNYKAAAGDEVAVSVPEPE", "values": [
      {"measurement": "soluble fraction (log2)", "result": -0.514}
    ]},
    {"sequence": "HMPRSREVHVEPGMVLEDVTTGFVGAVIRTEKSAGIYVIELEDRRGRRRSFPLGGGFWLDGRPIIALPPLP", "values": [
      {"measurement": "soluble fraction (log2)", "result": 0.281}
    ]},
    {"sequence": "HMHPTEKNLTSLLADGSFYMNQNKLETAYDTFTKTIELDPSWAEAWNKRATVLYLMGKYELSQADIDQV", "values": [
      {"measurement": "soluble fraction (log2)", "result": -0.176}
    ]},
    {"sequence": "HMSNYLKSVEVFDPITNKWSYVSAMKVRRGYVAVVATMDRLYAIGGYDGENYLSTVEMYNPDTN", "values": [
      {"measurement": "soluble fraction (log2)", "result": 0.0787}
    ]},
    {"sequence": "HMITNLEPFKDFVRGFSGLHLEGVGQEKLAAALDERIRKTGSANERDYLQLIMEDVAERLKLINILT", "values": [
      {"measurement": "soluble fraction (log2)", "result": -1.17}
    ]},
    {"sequence": "HMPTNVYSIIGKEGIVLESIDNLNSTGKVKVNGELWSAISDSNIEKGETIKVLSVNGVKLKVEKVN", "values": [
      {"measurement": "soluble fraction (log2)", "result": -0.0569}
    ]},
    {"sequence": "HMNNPLLDKVYQLMKQNNITEEEIVRAVAMKGYFPDDMKLGDYPDDFIDGVLIGAWDQIKQFIINNISPFK", "values": [
      {"measurement": "soluble fraction (log2)", "result": -0.359}
    ]},
    {"sequence": "HMTNIDRLIGQTAIVKETINNKKEQGVVRINGMDWTARTEEIDEVILKGKPVEILDIQGIKLIVRKK", "values": [
      {"measurement": "soluble fraction (log2)", "result": 0.161}
    ]},
    {"sequence": "HMTGMDALIGRRVFVSEEILPGDAGGRVAVDGDSWRAISVGTAKPIPAGTEVRIHGYKSLILEVEPI", "values": [
      {"measurement": "soluble fraction (log2)", "result": 0.0974}
    ]},
    {"sequence": "HMDLQHQLTPRLKRLRLSGILETLEVRNQQAIAEKWSYVEFLTRLAEDEVERRDHKQLTLRLR", "values": [
      {"measurement": "soluble fraction (log2)", "result": -0.564}
    ]},
    {"sequence": "HMDLDLNIDNYNFDDLLNLFGLKMKFSEDDLKKAKRSVLMTHPDKSGLDKQYFMFFTKAYKMLSQIYYFR", "values": [
      {"measurement": "soluble fraction (log2)", "result": -0.779}
    ]},
    {"sequence": "HMNEMIFNQKKIGQFFMNPETNSPMIYPLELGHKMKIIELKNGWYNVTDEKTGLNGWVKEEDFGVTKPLDS", "values": [
      {"measurement": "soluble fraction (log2)", "result": 0.0629}
    ]},
    {"sequence": "HMTQTDINQIETLVHEGNKLAAVKLLMDTAHIGLKEAKDIIDNFFLGKQTDLQAAVAQVQTR", "values": [
      {"measurement": "soluble fraction (log2)", "result": -0.722}
    ]},
    {"sequence": "HMNLGAHVYWRNHRAYGDFREYEDVGGGREALALPGSTWGTKDPRVAQALFAARLTEFQEARVGR", "values": [
      {"measurement": "soluble fraction (log2)", "result": -0.148}
    ]},
    {"sequence": "HMAMSDFDALSNRISTLSQGRASAVRMKDGIVSLVLDIGGLSAEERKAMTAAIEGEGRGYPSVTQVRILET", "values": [
      {"measurement": "soluble fraction (log2)", "result": 0.0485}
    ]},
    {"sequence": "HMKELAADFSRRIINARTSKGWSQADLGQRMAETINVIKSAESGKPPTDAVVKKFETVLGVILM", "values": [
      {"measurement": "soluble fraction (log2)", "result": 0.22}
    ]},
    {"sequence": "HMEAGTEYVERAADYIRSHFQEDLTVSKLALYVGLNRSYLTTVFQNTLHVSPQQFLMRFRMERAAQLLD", "values": [
      {"measurement": "soluble fraction (log2)", "result": -0.302}
    ]},
    {"sequence": "HMDDVGYLRKRLQQALAQLSDDLRNTYTLFQIGKQSIKQIAAETGASESLVKVRIHRAKQKLQELLADLQ", "values": [
      {"measurement": "soluble fraction (log2)", "result": -0.054}
    ]},
    {"sequence": "HMHYNMNYLENLTKTELFDLAKNKFGLTYAEMERHLSIPEGGARYAIKAEHSKYGSDIKKYLVEFLLE", "values": [
      {"measurement": "soluble fraction (log2)", "result": -0.134}
    ]},
    {"sequence": "HMLSLTSRQQEIFDLIKGHIKKTGMPPTRSEIALHFGFRSANSAEEHLRALARKGFIELIPGTSRGIKLIE", "values": [
      {"measurement": "soluble fraction (log2)", "result": "≥ 0.43"}
    ]},
    {"sequence": "HMLRKTTDLDAIRSVAKDVIDQNPKAVEDYVGGKESAIGFLLGQVMRATKGTADANTVRELLKEILDS", "values": [
      {"measurement": "soluble fraction (log2)", "result": -0.234}
    ]},
    {"sequence": "HMSETLESYTTRLKQLEEIADSFQGVDKTFAIQAGREIRVMVVPEQISDDDMILLARDISNQIEENLDY", "values": [
      {"measurement": "soluble fraction (log2)", "result": -0.912}
    ]},
    {"sequence": "HMNKPKIIINSVDDSVFSDYVKDSLSIAEVARSIGIDNNKINTSVYREIHKRIDSLKLDTSHFTGGAWN", "values": [
      {"measurement": "soluble fraction (log2)", "result": -0.634}
    ]},
    {"sequence": "HMNLLSPREKQSLTLYASGLTLREVASELKLSPNSVGKFISRGKFKLNKSGAIVNSKTSIYLELKKRNLI", "values": [
      {"measurement": "soluble fraction (log2)", "result": 0.108}
    ]},
    {"sequence": "HMSDFKDIILKLRNEQGFTQEKLADVLGTSKSTVGMWEMGVRFPSKELYEAIADYFNVDIDYLYGRTDIR", "values": [
      {"measurement": "soluble fraction (log2)", "result": -1.35}
    ]},
    {"sequence": "HMNSIQEQIEKYVYSLAPVTIERYESLKNGDIEDIEFEKLRKSISSKIINEKIDNKKQVAILSHLKKMYSD", "values": [
      {"measurement": "soluble fraction (log2)", "result": -0.472}
    ]},
    {"sequence": "HMRGVDRPLTLPRHWRRNAGRLVKVTLANGSAVTGRVLDPGEERVTLEVSGERHEVAYADVKKALVQVEF", "values": [
      {"measurement": "soluble fraction (log2)", "result": -0.32}
    ]},
    {"sequence": "HMIQIQDIAFSEFLQELDKGNIVEVNIKGDLINGDLINGKKFKTVAPYDPNLVEKLSKQNVRINVEPIN", "values": [
      {"measurement": "soluble fraction (log2)", "result": -0.0277}
    ]},
    {"sequence": "HMDVLNPGDKAVTTASWLNFRTGPGMQNKVASVLARNTTVNIIEKSNEWYKVSLANGSTGYVHGMYLSKIT", "values": [
      {"measurement": "soluble fraction (log2)", "result": 0.105}
    ]},
    {"sequence": "HMGVSLREVPVAEHGDWIGRPIKELGIPAEVLIVLVRRADGTTVVPKGGTVLQQGDMLVVNEWEE", "values": [
      {"measurement": "soluble fraction (log2)", "result": -1.25}
    ]},
    {"sequence": "HMKNLTEVEYSEFLESIAQDRVSKVQVDGLIIRGEMNDGQRFETVQPQVTDKALIDDMVNHRVDFSGARP", "values": [
      {"measurement": "soluble fraction (log2)", "result": -0.726}
    ]},
    {"sequence": "HMKNLADNIVALRKKHGLSQEQFAEKIDVTRQAVSNWERRIATPDVETIDLIAKLFDTDLTALVNG", "values": [
      {"measurement": "soluble fraction (log2)", "result": -0.129}
    ]}
  ]
}
